# US20250388669A1 (published 2025)
# B1: Ly238 (antibody, V domains shown)
# VH: QVQLQQSGAELVRPGSSVKISCKASGYAFSSYWMNWVKQRPGQGLEWIGQIWPGDGDTNYNGKFKGKATLTADESSSTAYMQLSSLASEDSAVYFCARRETTTVGRYYYAMDYWGQGTTVTVSS
# VL: DIQLTQSPASLAVSLGQRATISCKASQSVDYDGDSYLNWYQQIPGQPPKLLIYDASNLVSGIPPRFSGSGSGTDFTLNIHPVEKVDAATYHCQQSTEDPWTFGGGTKLEIK
# notes: Parent mAb; also called Anti-CD19 Ly238; parent anti-CD19 mAb
# B2: Ly2280 (bispecific antibody)
# chain 1: not shown
# chain 2: QVTLKESGPALVKPTQTLTLTCTFSGFSLSTSGTCVSWIRQPPGKALEWLATICWEDSKGYNPSLKSRLTISKDTSKNQAVLTMTNMDPVDTATYYCARREDSGYFWFPYWGQGTLVTVSSASTKGPSVFPLAPSSKSTSGGTAALGCLVKDYFPEPVTVSWNSGALTSGVHTFPAVLQSSGLYSLSSVVTVPSSSLGTQTYICNVNHKPSNTKVDKKVEPKSCGGGGSGGGGSGGGGSGGGGSDIQMTQSPSSVSASVGDRVTITCRASQGIYSWLAWYQQKPGKAPNLLIYTASTLQSGVPSRFSGSGSGTDFTLTISSLQPEDFATYYCQQANIFPLTFGGGTKVEIKGGGGSDKTHTCPPCPAPEAAGPSVFLFPPKPKDTLMISRTPEVTCVVVDVSHEDPEVKFNWYVDGVEVHNAKTKPREEQYNSTYRVVSVLTVLHQDWLNGKEYKCKVSNKALPAPIEKTISKAKGQPREPQVYTLPPSREEMTKNQVSLSCAVKGFYPSDIAVEWESNGQPENNYKTTPPVLDSDGSFFLVSKLTVDKSRWQQGNVFSCSVMHEALHNRFTQKSLSLSPG
# light: NIQMTQSPSSLSASVGDRVTITCKAGQNVNNYLAWYQQKPGKAPKVLIFNANSLQTGVPSRFSGSGSGTDFTLTISSLQPEDFATYYCQQYNSWPTFGGGTKVEIKRTVAAPSVFIFPPSDEQLKSGTASVVCLLNNFYPREAKVQWKVDNALQSGNSQESVTEQDSKDSTYSLSSTLTLSKADYEKHKVYACEVTHQGLSSPVTKSFNRGEC
# notes: PD-1 Fabs, central CD40 Fv
# B3: Ly2278 (bispecific antibody)
# chain 1: QVQLQQSGAELVRPGSSVKISCKASGYAFSSYWMNWVKQRPGQGLEWIGQIWPGDGDTNYNGKFKGKATLTADESSSTAYMQLSSLASEDSAVYFCARRETTTVGRYYYAMDYWGQGTTVTVSSASTKGPSVFPLAPSSKSTSGGTAALGCLVKDYFPEPVTVSWNSGALTSGVHTFPAVLQSSGLYSLSSVVTVPSSSLGTQTYICNVNHKPSNTKVDKKVEPKSCGGGGSGGGGSGGGGSGGGGSEVQLVESGGGLVQPGGSLRLSCAASGFTFSTYAMNWVRQAPGKGLEWVGRIRSKYNNYATYYADSVKGRFTISRDDSKNSLYLQMNSLKTEDTAVYYCVRHGNFGNSYVSWFAYWGQGTLVTVSSGGGGSDKTHTCPPCPAPEAAGPSVFLFPPKPKDTLMISRTPEVTCVVVDVSHEDPEVKFNWYVDGVEVHNAKTKPREEQYNSTYRVVSVLTVLHQDWLNGKEYKCKVSNKALPAPIEKTISKAKGQPREPQVYTLPPSREEMTKNQVSLWCLVKGFYPSDIAVEWESNGQPENNYKTTPPVLDSDGSFFLYSKLTVDKSRWQQGNVFSCSVMHEALHNHYTQKSLSLSPG
# chain 2: QVQLQQSGAELVRPGSSVKISCKASGYAFSSYWMNWVKQRPGQGLEWIGQIWPGDGDTNYNGKFKGKATLTADESSSTAYMQLSSLASEDSAVYFCARRETTTVGRYYYAMDYWGQGTTVTVSSASTKGPSVFPLAPSSKSTSGGTAALGCLVKDYFPEPVTVSWNSGALTSGVHTFPAVLQSSGLYSLSSVVTVPSSSLGTQTYICNVNHKPSNTKVDKKVEPKSCGGGGSGGGGSGGGGSGGGGSQAVVTQEPSLTVSPGGTVTLTCRSSTGAVTTSNYANWVQQKPGQAPRGLIGGTNKRAPWTPARFSGSLLGGKAALTITGAQAEDEADYYCALWYSNLWVFGGGTKLTVLGGGGSDKTHTCPPCPAPEAAGPSVFLFPPKPKDTLMISRTPEVTCVVVDVSHEDPEVKFNWYVDGVEVHNAKTKPREEQYNSTYRVVSVLTVLHQDWLNGKEYKCKVSNKALPAPIEKTISKAKGQPREPQVYTLPPSREEMTKNQVSLSCAVKGFYPSDIAVEWESNGQPENNYKTTPPVLDSDGSFFLVSKLTVDKSRWQQGNVFSCSVMHEALHNRFTQKSLSLSPG
# light: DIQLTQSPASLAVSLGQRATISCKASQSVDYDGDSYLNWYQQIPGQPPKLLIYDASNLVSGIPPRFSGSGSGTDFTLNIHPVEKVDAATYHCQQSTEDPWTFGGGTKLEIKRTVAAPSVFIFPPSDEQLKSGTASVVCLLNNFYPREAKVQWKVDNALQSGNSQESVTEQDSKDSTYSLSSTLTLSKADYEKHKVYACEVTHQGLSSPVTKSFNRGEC
# notes: Bispecific CD19 (two Fabs) / CD3 (central Fv)
# Experiments:
# CD19 = target: T1, CD19 (UniProt P15391 20-556, limits assumed); test: FCM or ELISA (graded summary table)
# T1 construct: whole, on cells
# T1 sequence (looked up): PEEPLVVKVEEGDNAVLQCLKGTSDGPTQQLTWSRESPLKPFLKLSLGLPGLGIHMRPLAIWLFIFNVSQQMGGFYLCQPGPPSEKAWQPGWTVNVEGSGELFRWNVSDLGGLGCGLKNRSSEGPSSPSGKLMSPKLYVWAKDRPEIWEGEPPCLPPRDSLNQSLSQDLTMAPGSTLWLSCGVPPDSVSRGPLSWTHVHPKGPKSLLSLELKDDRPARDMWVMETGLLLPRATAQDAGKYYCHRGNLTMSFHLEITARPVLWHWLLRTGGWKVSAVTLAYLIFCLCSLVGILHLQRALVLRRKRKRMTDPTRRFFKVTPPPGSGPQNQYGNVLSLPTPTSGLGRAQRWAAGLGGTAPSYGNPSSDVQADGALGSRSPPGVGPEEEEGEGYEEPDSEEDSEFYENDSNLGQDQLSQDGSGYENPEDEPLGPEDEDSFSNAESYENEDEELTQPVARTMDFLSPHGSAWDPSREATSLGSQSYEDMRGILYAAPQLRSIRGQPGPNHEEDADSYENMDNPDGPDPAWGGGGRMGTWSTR
# CD40 = target: T2, CD40 (human, UniProt P25942 21-193); test: CD40 binding (method not given)
# T2 construct: In the reporter assay it is whole, on GS-H2-huCD40 cells; also called huCD40
# T2 sequence (P25942 21-193 limits assumed): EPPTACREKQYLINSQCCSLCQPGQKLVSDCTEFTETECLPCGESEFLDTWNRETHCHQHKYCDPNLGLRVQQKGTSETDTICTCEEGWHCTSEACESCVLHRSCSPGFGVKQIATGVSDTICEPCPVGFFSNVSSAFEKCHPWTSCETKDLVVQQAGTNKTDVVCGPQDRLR
Binder,binding result (CD19),EC50 (CD40)
B1,binds,–
B2,–,3.17 µg/mL
B3,binds,–
